Measurements from patent publication US20250382390A1 (Chugai, published 2025).

B1: Q-CDR-Clipped Variants (variants of Emicizumab) (bispecific antibody, human IgG4 S228P, kappa)
heavy 1: QVQLVESGGGLVQPGGSLRLSCAASGFTFSYYDIQWVRQAPGKGLEWVSSISPSGQSTYYRREVKGRFTISRDNSKNTLYLQMNSLRAEDTAVYYCARRTGREYGGGWYFDYWGQGTLVTVSSASTKGPSVFPLAPCSRSTSESTAALGCLVKDYFPEPVTVSWNSGALTSGVHTFPAVLQSSGLYSLSSVVTVPSSSLGTQTYTCNVDHKPSNTKVDKRVESKYGPPCPPCPAPEFLGGPSVFLFPPKPKDTLMISRTPEVTCVVVDVSQEDPEVQFNWYVDGVEVHNAKTKPREEQYNSTYRVVSVLTVLHQDWLNGKEYKCKVSNKGLPSSIEKTISKAKGQPREPQVYTLPPSQKEMTKNQVSLTCLVKGFYPSDIAVEWESNGQPENNYKTTPPVLDSDGSFFLYSKLTVDKSRWQEGNVFSCSVMHEALHNRYTQKSLSLSP
heavy 2: QVQLVQSGSELKKPGASVKVSCKASGYTFTDNNMDWVRQAPGQGLEWMGDINTRSGGSIYNEEFQDRVIMTVDKSTDTAYMELSSLRSEDTATYHCARRKSYGYYLDEWGEGTLVTVSSASTKGPSVFPLAPCSRSTSESTAALGCLVKDYFPEPVTVSWNSGALTSGVHTFPAVLQSSGLYSLSSVVTVPSSSLGTQTYTCNVDHKPSNTKVDKRVESKYGPPCPPCPAPEFLGGPSVFLFPPKPKDTLMISRTPEVTCVVVDVSQEDPEVQFNWYVDGVEVHNAKTKPREEQYNSTYRVVSVLTVLHQDWLNGKEYKCKVSNKGLPSSIEKTISKAKGQPREPQVYTLPPSQEEMTKNQVSLTCLVKGFYPSDIAVEWESNGQPENNYKTTPPVLDSDGSFFLYSKLTVDKSRWQEGNVFSCSVMHEALHNHYTQESLSLSP
light: DIQMTQSPSSLSASVGDRVTITCKASRNIERQLAWYQQKPGQAPELLIYQASRKESGVPDRFSGSRYGTDFTLTISSLQPEDIATYYCQQYSDPPLTFGGGTKVEIKRTVAAPSVFIFPPSDEQLKSGTASVVCLLNNFYPREAKVQWKVDNALQSGNSQESVTEQDSKDSTYSLSSTLTLSKADYEKHKVYACEVTHQGLSSPVTKSFNRGEC
modifications: Q chain: R at the 61st position from the N terminus (Kabat 60), or YYR at the 59th to 61st positions (Kabat 58 to 60), deleted and the chain cleaved at the deletion site; the N-terminal and C-terminal fragments are joined via a disulfide bond
B2: Protected Disulfide Isoforms (isoforms of Emicizumab) (bispecific antibody, human IgG4 S228P, kappa)
heavy 1: B1 heavy 1
heavy 2: B1 heavy 2
light: B1 light

Tests used:
[1] = target: blood coagulation factor X (FX) (UniProt P00742 41-488, limits assumed); test: cell-based or functional assay
[2] = target: activated blood coagulation factor IX (FIXa) (UniProt P00740 47-461, limits assumed); test: cell-based or functional assay
Chain of activated blood coagulation factor IX (FIXa) (P00740 47-461 limits assumed): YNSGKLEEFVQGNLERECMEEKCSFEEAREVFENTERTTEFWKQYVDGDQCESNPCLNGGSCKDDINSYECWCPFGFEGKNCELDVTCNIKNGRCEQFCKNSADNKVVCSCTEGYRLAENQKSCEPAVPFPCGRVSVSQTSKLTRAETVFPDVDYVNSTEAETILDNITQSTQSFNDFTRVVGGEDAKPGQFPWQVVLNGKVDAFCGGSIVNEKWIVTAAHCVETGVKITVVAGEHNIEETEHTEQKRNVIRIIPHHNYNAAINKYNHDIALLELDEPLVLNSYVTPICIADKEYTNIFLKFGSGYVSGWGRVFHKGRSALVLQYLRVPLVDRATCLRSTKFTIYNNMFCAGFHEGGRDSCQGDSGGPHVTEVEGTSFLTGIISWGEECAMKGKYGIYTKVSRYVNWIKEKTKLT

Chain of blood coagulation factor X (FX) (P00742 41-488 limits assumed): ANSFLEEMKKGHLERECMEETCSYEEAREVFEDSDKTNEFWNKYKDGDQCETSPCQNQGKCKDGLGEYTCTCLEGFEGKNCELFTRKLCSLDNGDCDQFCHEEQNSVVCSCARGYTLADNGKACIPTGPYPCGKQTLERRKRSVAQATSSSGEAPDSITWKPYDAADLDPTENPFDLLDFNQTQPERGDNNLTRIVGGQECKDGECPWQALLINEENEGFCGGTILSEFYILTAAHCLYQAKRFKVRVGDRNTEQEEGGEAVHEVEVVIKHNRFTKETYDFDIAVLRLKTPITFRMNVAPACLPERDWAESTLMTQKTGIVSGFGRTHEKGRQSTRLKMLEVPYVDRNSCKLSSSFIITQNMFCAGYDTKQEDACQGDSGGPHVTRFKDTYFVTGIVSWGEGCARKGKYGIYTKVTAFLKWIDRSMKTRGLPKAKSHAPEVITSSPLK

| Binder | biological activity relative to the Emicizumab standard solution (chromogenic assay: FXa produced in the presence of FIXa, FX and phospholipid) [1] | biological activity relative to the Emicizumab standard solution (chromogenic assay: FXa produced in the presence of FIXa, FX and phospholipid) [2] |
| --- | --- | --- |
| B1 | 18% | 18% |
| B2 | 8% | 8% |
